Measurements reported in US20140045756A1.

Key:
[1] = molecular target: TNFR2 immobilized on the SPR sensor chip (channel 1) (UniProt P20333); assay: SPR (FastStep kinetic assay); right panel is TNFR2; key printed as TNFR1; details: designed binder
[2] = molecular target: TNFR1 immobilized on the SPR sensor chip (channel 3) (UniProt P19438); assay: SPR (FastStep kinetic assay)
[3] = molecular target: TNFR2 immobilized on the SPR sensor chip (channel 1) (UniProt P20333); assay: SPR (FastStep kinetic assay); details: ligand

Sequence of Recombinant human PGRN (rhPGRN) (P28799 18-593): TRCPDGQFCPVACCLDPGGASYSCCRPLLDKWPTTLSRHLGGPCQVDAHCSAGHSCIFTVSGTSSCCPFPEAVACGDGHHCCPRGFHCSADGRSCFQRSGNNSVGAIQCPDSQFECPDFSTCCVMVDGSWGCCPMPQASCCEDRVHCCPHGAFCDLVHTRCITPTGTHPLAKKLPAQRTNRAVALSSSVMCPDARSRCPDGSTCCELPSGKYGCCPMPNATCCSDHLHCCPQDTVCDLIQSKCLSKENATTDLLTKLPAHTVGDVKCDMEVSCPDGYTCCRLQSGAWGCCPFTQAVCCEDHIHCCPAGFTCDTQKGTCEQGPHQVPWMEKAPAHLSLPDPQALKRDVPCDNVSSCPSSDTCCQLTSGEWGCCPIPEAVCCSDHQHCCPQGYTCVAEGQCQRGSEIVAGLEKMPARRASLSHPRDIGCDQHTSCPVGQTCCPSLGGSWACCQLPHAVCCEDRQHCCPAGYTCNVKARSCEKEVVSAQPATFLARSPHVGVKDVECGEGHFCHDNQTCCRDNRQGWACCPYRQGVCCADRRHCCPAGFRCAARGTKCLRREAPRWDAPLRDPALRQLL
Sequence of TNFR1 immobilized on the SPR sensor chip (channel 3) (P19438 30-211): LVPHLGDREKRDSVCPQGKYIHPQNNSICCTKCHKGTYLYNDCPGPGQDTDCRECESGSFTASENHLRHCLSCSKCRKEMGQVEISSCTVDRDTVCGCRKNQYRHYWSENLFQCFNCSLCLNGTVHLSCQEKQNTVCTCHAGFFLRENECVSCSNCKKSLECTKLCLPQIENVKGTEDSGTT

Substance | Kd [1] [nM] | Kd ([2]; designed binder) [nM] | Kd [3] [nM] | Kd ([2]; ligand) [nM]
Atsttrin-α1 (Antagonist of TNF/TNFR Signaling via Targeting to TNF Receptors-α1), recombinant | 90.2 | 142 |  | 
Recombinant human PGRN (rhPGRN) (from UniProt P28799 18-593) |  |  | 1.52 | 1.77
